This is an account of results in US20080160035A1 (Regeneron, published 2008).

Sequences and labels used below:
T1: dimeric hIL-4R-hFc (human, UniProt P24394 26-232)
T1 construct: also called hIL-4R-Fc; not shown: human Fc (hFc)
T1 sequence: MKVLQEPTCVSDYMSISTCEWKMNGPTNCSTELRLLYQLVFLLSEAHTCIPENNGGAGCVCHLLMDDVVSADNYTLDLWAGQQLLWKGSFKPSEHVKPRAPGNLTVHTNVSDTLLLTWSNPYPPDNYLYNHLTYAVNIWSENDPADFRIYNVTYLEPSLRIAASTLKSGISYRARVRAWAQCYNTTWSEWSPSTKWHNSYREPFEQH

T2: mouse IL-4R (mouse, UniProt P16382 26-233, limits assumed)
T2 sequence (looked up): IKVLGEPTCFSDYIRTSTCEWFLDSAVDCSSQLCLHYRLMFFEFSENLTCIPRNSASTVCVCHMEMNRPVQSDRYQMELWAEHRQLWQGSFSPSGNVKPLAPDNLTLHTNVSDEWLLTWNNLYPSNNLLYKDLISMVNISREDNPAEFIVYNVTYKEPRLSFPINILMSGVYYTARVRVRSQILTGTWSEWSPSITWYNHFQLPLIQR

T3: hIL-4R on cells (STAT6-transfected HEK293, TF1, TF1/A12) (human, UniProt P24394 26-825)
T3 sequence (looked up): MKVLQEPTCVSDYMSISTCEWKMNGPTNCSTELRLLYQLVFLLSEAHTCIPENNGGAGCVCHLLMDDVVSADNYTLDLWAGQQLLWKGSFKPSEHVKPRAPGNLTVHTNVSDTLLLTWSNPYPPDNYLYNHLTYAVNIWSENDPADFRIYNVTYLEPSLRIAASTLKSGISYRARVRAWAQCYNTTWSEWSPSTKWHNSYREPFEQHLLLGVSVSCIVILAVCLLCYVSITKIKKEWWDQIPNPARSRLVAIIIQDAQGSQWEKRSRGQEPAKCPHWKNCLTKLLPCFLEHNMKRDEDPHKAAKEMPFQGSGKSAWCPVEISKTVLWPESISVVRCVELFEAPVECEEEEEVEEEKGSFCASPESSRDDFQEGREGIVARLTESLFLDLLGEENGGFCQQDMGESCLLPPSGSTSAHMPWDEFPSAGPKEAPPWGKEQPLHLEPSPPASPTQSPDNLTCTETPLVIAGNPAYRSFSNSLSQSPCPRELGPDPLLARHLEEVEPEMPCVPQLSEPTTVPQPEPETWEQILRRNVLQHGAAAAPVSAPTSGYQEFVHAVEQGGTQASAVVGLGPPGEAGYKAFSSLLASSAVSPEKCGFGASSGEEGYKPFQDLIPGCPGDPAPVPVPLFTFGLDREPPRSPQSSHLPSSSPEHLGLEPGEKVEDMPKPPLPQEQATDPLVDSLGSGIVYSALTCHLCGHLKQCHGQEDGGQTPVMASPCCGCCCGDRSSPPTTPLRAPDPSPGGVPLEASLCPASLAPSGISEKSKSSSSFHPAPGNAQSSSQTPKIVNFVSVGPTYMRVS

T4: monomeric hIL-4R (R&D Systems) (human, UniProt P24394 26-231)
T4 construct: Bought (R&D Systems); also called hIL-4R monomer
T4 sequence: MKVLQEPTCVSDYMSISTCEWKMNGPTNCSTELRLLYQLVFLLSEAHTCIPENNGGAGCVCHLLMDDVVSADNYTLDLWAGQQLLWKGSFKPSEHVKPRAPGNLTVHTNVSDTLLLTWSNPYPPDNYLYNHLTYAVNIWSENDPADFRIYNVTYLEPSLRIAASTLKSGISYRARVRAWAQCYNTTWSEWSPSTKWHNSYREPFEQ

B1: VAK8G11-13 (antibody, V domains shown)
VH: QVRLVESGGGVVQPGGSLRLSCAASGFIFRSYGMHWVRQAPGRGLEWVAVISYDGSKTFYVDSVKVRFTISRDNSKNTLYLEMNSLRVDDTAVYFCVKEGRSGSWFDPWGQGTLVAVSS
VL: DIHMTQSPSSLSASVGDRVTITCRASQAINNFLAWFQQKPGKTPKSLIFATSSLQSGVPSRFSGSGSGTDFTLTISSLQPEDFATYYCQQYNSHPWTFGQGTKVEIK
notes: Apparently tested with mouse constant region (anti-mouse IgG capture/detection)
B2: VAK10G6-7 (antibody, V domains shown)
VH: QVQLVESGGGVVQPGRSLRLSCTASGFTFSSFGMHWVRQAPGRGLEWVAVISYDGSKKYYADSVKVRFTISRDNSKNTLYLQMNSLRVDDTAVYFCAKEGRTGNWFDPWGQGTLVAVSS
VL: B1 VL with H3Q, F32Y, S65T, K107R
notes: as for B1
B3: VAK5H4-4 (antibody, V domains shown)
VH: B1 VH with A23V, I28T
VL: B1 VL with H3Q, K45N, G64A, S65G
notes: as for B1
B4: VAK7G8-5 (antibody, V domains shown)
VH: B1 VH with A23T
VL: B1 VL with K107R
notes: as for B1
B5: VAK11D4-1 (antibody, V domains shown)
VH: B1 VH with G16R, A23V, I28T, K57Q, K76N
VL: B1 VL with F32Y, K42R
notes: as for B1
B6: VAK9C6-11 (antibody, V domains shown)
VH: QVQLVESGGGVVQPGRSLRLSCAASGFTFSSYGMHWVRQAPGKGLEWVTVISYDGSIKYYVDSVKGRFTISRDNSKNTLFLQMNSLRVEDTAVYYCAKEGRKYGMDVWGQGTTVTVSS
VL: DIQMTQSPSTLSASVGDRVTITCRASQIISSLLVWYQQKPGKAPKLLIYKASSLESGVPSRFSGSGSGTEFTLTISSLQPDDFATYYCQQYHSYMYTFGQGTKLEIK
notes: as for B1
B7: VAK12B11-9 (antibody, V domains shown)
VH: QVQLVESGGGVVQPGRSLRLSCAASGFTFSSYAMYWVRQAPGKGLEWVAVISYDGSNKYYTDSVKGRFTVSRDNSKNTLFLQMNSLRAEDTALYYCAKESSSYGLDVWGQGTTVTVSS
VL: B6 VL with T20A, I28S, S31N, L32W, V34A, Y49S, E55K, T85A, H92N, M95S
notes: as for B1

Where a chain is given by its changes, count along the chain named.

In the first test the target is T1, dimeric hIL-4R-hFc. As to the kind of experiment: ELISA; antibody titrated against 25 pM hIL-4R-Fc, free receptor caught on hIL-4 plate. As for the experimental part:
Concentration of free hIL-4R-Fc (no antibody bound) was determined using a hIL-4R-specific sandwich ELISA. […] After a one-hour incubation at room temperature, the detection plate was washed and plate-bound hIL-4R-hFc was detected using HRP conjugated goat anti-hFc polyclonal antibodies and developed using colorimetric substrates such as BD OptEIA™ (BD Biosciences Pharmingen, San Diego, Calif.). After the reaction was stopped with 1 M phosphoric or sulfuric acid, absorbances at 450 nm were recorded and the data were analyzed using GraphPad™ Prism software.
(An ELISA detects its analyte on a solid surface through an enzyme-linked reagent.)
The term IC50 denotes the midpoint of a concentration-inhibition curve. A high value points to lower potency. B1: the IC50 was determined as 26 pM.
Same read-out and setting: the value for B2 was 37 pM; that for B3 was 33 pM.
B4 registered an IC50 of 27 pM. The IC50 values of the last two molecules are within 1.5-fold of each other.
On to B5, for which the IC50 amounted to 35 pM.
Still for that read-out and setting: the figure for B6 is 67 pM; for B7 it is 99 pM.

For the next test, the target named is T2, mouse IL-4R. The test can be described thus: binding affinity test of Example 2 (method not restated).
In the case of B1, the binding result is reported as “no binding”.
Same read-out and setting: the value for B2 was “no binding”.
Turning to B3, the binding result is recorded as “no binding”.
On the same count and under the same terms, the value for B4 was “no binding”; that for B5 was “no binding”.
On the same count and under the same terms, the entry for B6 is “no binding”; for B7 it is “no binding”.

The target in another test is T3, hIL-4R on cells (STAT6-transfected …). The test can be described thus: cell-based or functional assay.
Consider B1, for which the “STAT6 Bioassay IC50 (HEK293 STAT6 luciferase, 40 pM hIL-13)” value came out at 60 pM and the “TF1 Bioassay IC50 (proliferation, 150 pM hIL-13)” value was 0.42 nM.
Take B2: the “STAT6 Bioassay IC50 (HEK293 STAT6 luciferase, 40 pM hIL-13)” value came out at 70 pM and the “TF1 Bioassay IC50 (proliferation, 150 pM hIL-13)” value is 0.46 nM.
For B3 the same measures were 84 pM and 0.24 nM.
As for B4, the “STAT6 Bioassay IC50 (HEK293 STAT6 luciferase, 40 pM hIL-13)” value was 40 pM and the “TF1 Bioassay IC50 (proliferation, 150 pM hIL-13)” value was found to be 0.36 nM.
For B5 the same measures were 0.14 nM and 0.44 nM.
In the case of B6, the “STAT6 Bioassay IC50 (HEK293 STAT6 luciferase, 40 pM hIL-13)” value came to 0.3 nM and the “TF1 Bioassay IC50 (proliferation, 150 pM hIL-13)” value turned out to be 1 nM.
The like results for B7 were, in that order, 0.37 nM and 1.6 nM.

In the next test the target is T1, dimeric hIL-4R-hFc. The test can be described thus: SPR; reduction of hIL-4 (50 nM) binding to captured hIL-4R-hFc after antibody; competitor hIL-4. An excerpt:
Purified hIL-4R-hFc molecules were captured by goat anti-human IgG polyclonal antibody immobilized on CM-5 to a density of 260 RU, to prepare a receptor-coated surface.
In general terms: In SPR one partner is held on a chip, and binding of the other changes the refractive index at the surface.
Consider B1, for which the “% Inhibition (BIAcore)” value is 95%.
On the same count and under the same terms, the figure for B2 is 95%; for B3 it is 96%.
Same read-out and setting: the value for B4 was 95%; that for B5 was 95%; that for B6 was 96%.
Still for that read-out and setting: the value for B7 was 96%.

The target in another test is T3, hIL-4R on cells (STAT6-transfected …). As to the kind of experiment: cell-based or functional assay. This is another data set of the same source.
With B1, the “STAT6 Bioassay IC50 (HEK293 STAT6 luciferase, 10 pM hIL-4)” value was 80 pM and the “TF1 Bioassay IC50 (proliferation, 50 pM hIL-4)” value turned out to be 0.16 nM.
The like results for B2 were, in that order, 0.11 nM and 0.23 nM.
On to B3, for which the “STAT6 Bioassay IC50 (HEK293 STAT6 luciferase, 10 pM hIL-4)” value is 0.132 nM; the “TF1/A12 Bioassay IC50 (proliferation, 20 pM hIL-4)” value is 0.182 nM; the “TF1 Bioassay IC50 (proliferation, 50 pM hIL-4)” value worked out at 0.15 nM.
On to B4, for which the “STAT6 Bioassay IC50 (HEK293 STAT6 luciferase, 10 pM hIL-4)” value is 60 pM and the “TF1 Bioassay IC50 (proliferation, 50 pM hIL-4)” value was 0.13 nM.
For B5 the same measures were 0.2 nM and 0.2 nM.
The like results for B6 were, in that order, 0.48 nM and 0.31 nM.
For B7 the same measures were 0.49 nM and 0.57 nM.

The next test addresses T4, monomeric hIL-4R (R&D Systems). As to the kind of experiment: SPR (BIAcore 2000); antibody captured, monomeric hIL-4R injected. As for the experimental part:
(§1) Binding affinity (KD) of selected antibodies with respect to hIL-4R was determined using a real-time biosensor surface plasmon resonance assay (BIAcore™ 2000). Briefly, antibody was captured on a goat anti-mouse (GAM) IgG polyclonal antibody surface created through direct chemical coupling of the GAM IgG to a BIAcore™ chip to form a captured antibody surface. […] Binding of antigen to antibody and dissociation of the bound complex, were monitored in real time. Equilibrium dissociation constants (KD) and dissociation rate constants were ascertained by performing kinetic analysis using BIA evaluation software. BIA evaluation software was also used to calculate the half-life of antigen/antibody complex dissociation (T_{1/2}). […] The binding affinity of anti-hIL-4R antibodies to either mouse or monkey (Macaca fascicularis) IL-4R was also tested.
In general, Kd refers to the equilibrium constant for the complex coming apart. A higher Kd goes with a looser complex. The molecule B1 registered a Kd of 30 pM and a T1/2 monomeric of 14 h.
The like results for B2 were, in that order, 230 pM and 2.4 h.
The like results for B3 were, in that order, 20 pM and 16 h.
Molecule B4 came in with a Kd of 60 pM and a T1/2 monomeric of 8 h.
As to B5, binding was characterised by a dissociation constant (Kd) of 50 pM and the T1/2 monomeric was found to be 8 h.
The like results for B6 were, in that order, 2050 pM and 0.467 h.
For B7 the same measures were 410 pM and 2 h.

In another test the target is T1, dimeric hIL-4R-hFc. The test can be described thus: SPR (BIAcore 2000); antibody captured, dimeric hIL-4R-hFc injected. How it is done:
as §1
On to B1, for which binding was characterised by a dissociation constant (Kd) of 2 pM and the T1/2 dimeric amounted to 63 h.
The like results for B2 were, in that order, 11 pM and 24 h.
The like results for B3 were, in that order, 4 pM and 30 h.
For B4 the same measures were 9 pM and 25 h.
B5 had a Kd of 6 pM and a T1/2 dimeric of 21 h.
For B6, the Kd was found to be 68 pM and the T1/2 dimeric is 7 h.
In the case of B7, the dissociation constant Kd turned out to be 36 pM and the T1/2 dimeric was 12 h.
